What was measured:
[1] = target: C-terminal coiled-coil of hTMEM266 (residues 224–289) (human) (UniProt Q2M3C6); test: non-reducing SDS-PAGE; purified coiled-coil run on SDS-PAGE with or without 2-ME; single species (monomer) with 2-ME, additional band at ~15 kDa without
[2] = target: C-terminal twin-Strep-tagged hTMEM266 (human) (UniProt Q2M3C6); test: cross-linking; DSS (varying concentration) applied to intact HEK 293T cells expressing Strep-tagged hTMEM266; membrane fractions on SDS-PAGE; Western blot with anti-Strep antibody
[3] = target: C-terminal twin-Strep-tagged hTMEM266 (human) (UniProt Q2M3C6); test: cross-linking; air oxidation (disulfide) of membrane fractions of HEK 293T cells expressing Strep-tagged hTMEM266; 10 mM NEM; SDS-PAGE with or without 2-ME; Western blot with anti-Strep antibody

Row | Substance | stoichiometry N [1] | stoichiometry N [2] | stoichiometry N [3]
1 | C-terminal coiled-coil of hTMEM266 (residues 224–289) (from UniProt Q2M3C6 224-289) (domain or fragment) | 2 |  | 
2 | C-terminal twin-Strep-tagged hTMEM266 (from UniProt Q2M3C6 1-523) (natural protein) |  | 2 | 2

From PMC6392501
